Measurements reported in US20240269318A1.

Columns and labels:
Conditions in all cases: remark: other sources report otherwise
[1] = target: T1, recombinant human alpha-synuclein aggregates (ab218819) (human), P37840; test: super-resolution imaging in differentiated SH-SY5Y cells loaded with AS aggregates; SynO4 delivered by TF-liposomes
[2] = target: T1, recombinant human alpha-synuclein …; test: ELISA on AS aggregates; antibody pre-heated 1 hr at 65 °C, stored overnight at 4 °C, measured the next day
[3] = target: T1, recombinant human alpha-synuclein …; test: super-resolution microscopy; Cy3-SynO4 and Alexa Fluor 488-AS aggregates in differentiated SH-SY5Y cells
[4] = target: T1, recombinant human alpha-synuclein …; test: ELISA on AS aggregates; antibody pre-heated 1 hr at 65 °C, measured immediately

detection between antibody and aggregates [1]: > 80%
maximal activity [2]: 44%
colocalization [3]: 75%
maximal activity [4]: 22%
B1: SynO4 antibody (Creative Biolabs, USA) (antibody)
chain 1: EVQLVESGGGLVQPKGSLKLSCAASGFTFNTYAMHWVRQAPGKGLEWVARIRSKSSNYATYYADSVKDRFTISRDDSQSMLYLQMNNLKTEDTAMYYCVRPLKWYFDVWGTGTTVTVSS
chain 2: QIVLTQSPAILSASPGEKVTMTCSASSTVNYMHWYQQKSGTSPKIWIYDTSKLASGVPARFSGSGSWTSYSLTISSMEAEDAATYYCQQWNSNPPTFGAGTKLELK
